Assay results: publication PMC6769508

Legend:
[1] = biological target: SyKaiBDD, SyKaiB with Arg22 and Lys25 substituted with aspartate residues (Synechococcus elongatus PCC 7942) (UniProt Q79PF5)
[2] = biological target: SyKaiB, wild-type KaiB of Synechococcus elongatus PCC 7942 (Synechococcus elongatus PCC 7942) (UniProt Q79PF5)

period of the in vitro oscillation of the phosphorylated KaiC level (SyKaiA 1.5 µM, SyKaiC 3.4 µM, SyKaiBDD 4.2 µM, 30 °C) [1]	period of the in vitro oscillation of the phosphorylated KaiC level (SyKaiA 1.5 µM, SyKaiC 3.4 µM, SyKaiBWT 4.2 µM, 30 °C) [2]	Binder
30.4 h		SyKaiBDD, SyKaiB with Arg22 and Lys25 substituted with aspartate residues (natural protein) MSPRKTYILKLYVAGNTPNSVDALDTLKNILEVEFQGVYALKVIDVLKNPQLAEEDKILATPTLAKVLPLPVRRIIGDLSDREKVLIGLDLLYGELQDSDDF
	23.2 h	SyKaiB, wild-type KaiB of Synechococcus elongatus PCC 7942 (natural protein) MSPRKTYILKLYVAGNTPNSVRALKTLKNILEVEFQGVYALKVIDVLKNPQLAEEDKILATPTLAKVLPLPVRRIIGDLSDREKVLIGLDLLYGELQDSDDF
